This data set concerns the molecule itself. Put plainly: SEC; size-exclusion chromatography of the purified protein on a Superdex S200 10/300 GL column. For orientation: Size exclusion chromatography separates by hydrodynamic size, large species first.

The record followed here is publication PMC4176176, “The CRISPR-associated Cas4 protein Pcal_0546 from Pyrobaculum calidifontis contains a [2Fe-2S] cluster: crystal structure and nuclease activity” (Nucleic Acids Research, 2014).

Usually stoichiometry N stands for the number of molecules, sites or subunits per partner or assembly.

B1: Cas4 protein SSO1391 from Sulfolobus solfataricus (enzyme, UniProt Q97YD4 1-291, looked up)
chain: MFFTHSDMLLLSKRIKKLPKNVDEELRGWNWSEPPVYTRSLSQVSISEMVYCSTLRNVYLKVKGFRGEIGRQILQGSLIHTIYAIGIEAIKRFIYSRESIDGSTLRTLMGDEFYSLLKDLREEEGIYAKVLWDHITNIYSAELDRVRSKFTNLTRDSLVSQVVPFYVEFPVDGSLLGLTNLRVDAFIPHLPLIAEMKTGKYRYTHELSLAGYALAIESQYEIPIDFGYLCYVTVTEKEVKNNCKLIPISDSLRSEFLDMRDKAQDIMDKGVDPGIAKDCESDCMFYKVCHP
notes: Cas4 protein SSO1391 (DUF911 family), Sulfolobus solfataricus; predicted molecular mass 35.9 kDa
B1: the “stoichiometry N” value is 2.
